Test results taken from the supplement of paper PMC10126150.
± gives the standard deviation of the averaged measurements.

system: ATP; experiment: switch fluorescence ratio, 500 uM ATP over buffer (Cy3 cluster intensity, sum of 5 cycles each) (fold (ratio)); higher = stronger signal-on switching upon ATP binding; sequences stand for … in TCGTCGGCAGCGTCAGATGTGTATAAGAGACAGTTTTTTTTTTTTTTTTTTTTTTTTT…TC; settings: aptamer strand: ATP DNA aptamer (quencher-CACCTGGGGGAGTATTGCGGAGGAAGG + anchor), 100 nM annealed; ATP concentration: 500 uM
Outline: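 Clusters with intensities outside 100-1000 RFU were excluded. The remaining Cy3-labelled switching-strand clusters on a modified Illumina MiSeq flow-cell had been annealed to 100 nM quencher-labelled ATP aptamer and imaged in selection buffer, then after 15 min with 500 uM ATP at 22 °C, for five cycles separated by NaOH stripping and re-annealing. The fluorescence ratio, averaged per switch-domain sequence, is each cluster's summed target-cycle Cy3 intensity over its summed buffer-cycle Cy3 intensity.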
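Also: ATP exposure 15 min at 22 °C before imaging.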

| Sequence | switch fluorescence ratio |
| --- | --- |
| ATGAGGGTGC | 0.994 ± 0.054 |
| ATGAGGTTCA | 0.9759 ± 0.0049 |
| ATGAGGTTTC | 0.989 ± 0.016 |
| ATGAGTAAAG | 0.999 ± 0.025 |
| ATGAGTATTG | 0.9888 ± 0.0078 |
| ATGAGTCTAA | 0.992 ± 0.011 |
| ATGAGTGGGG | 1.01 ± 0.029 |
| ATGAGTTTTT | 1.01 ± 0.054 |
| ATGATAAAAT | 1.11 ± 0.13 |
| ATGATAAGGG | 0.979 ± 0.013 |
| ATGATACATA | 1.02 ± 0.019 |
| ATGATAGAAC | 1.03 ± 0.015 |
| ATGATATTTT | 0.986 ± 0.027 |
| ATGATCAATT | 1.02 ± 0.049 |
| ATGATGAGTT | 0.986 ± 0.01 |
| ATGATGCGGG | 1.01 ± 0.044 |
| ATGATGTCGG | 1.03 ± 0.033 |
| ATGATTAAGG | 1.015 ± 0.0029 |
| ATGATTAGTT | 1.01 ± 0.046 |
| ATGATTCCTT | 1 ± 0.03 |
| ATGATTTAGG | 0.9998 ± 0.0095 |
| ATGCACACCG | 1.087 ± 0.0016 |
| ATGCACGGAA | 1.05 ± 0.036 |
| ATGCACTGGT | 1.01 ± 0.026 |
| ATGCAGATTA | 1.023 ± 0.0051 |

| Sequence | switch fluorescence ratio |
| --- | --- |
| ATGCAGGCAC | 1.03 ± 0.024 |
| ATGCAGGGCT | 0.962 ± 0.041 |
| ATGCATAGTT | 0.963 ± 0.017 |
| ATGCATGCGT | 1 ± 0.048 |
| ATGCATTTGT | 1.01 ± 0.031 |
| ATGCCTCGGG | 1.02 ± 0.032 |
| ATGCGAAGG | 0.98 ± 0.038 |
| ATGCGAAGTG | 1 ± 0.039 |
| ATGCGACGGC | 1.05 ± 0.028 |
| ATGCGATGTA | 1.04 ± 0.046 |
| ATGCGCTTTT | 1.03 ± 0.089 |
| ATGCGGTGTG | 0.978 ± 0.04 |
| ATGCGTATTT | 0.975 ± 0.039 |
| ATGCGTCGGA | 1.032 ± 0.0066 |
| ATGCGTGAGG | 1.011 ± 0.0037 |
| ATGCTAAGTG | 0.96412 ± 8.8e-05 |
| ATGCTAATTA | 1.02 ± 0.024 |
| ATGCTATCGT | 1.02 ± 0.014 |
| ATGCTGACCT | 1.01 ± 0.034 |
| ATGCTTAGTC | 0.964 ± 0.018 |
| ATGCTTGCTG | 0.9819 ± 0.0052 |
| ATGGAAAAGG | 0.9916 ± 0.0094 |
| ATGGACAGGC | 0.912 ± 0.014 |
| ATGGACCGTT | 1.02 ± 0.078 |
| ATGGAGGCGC | 0.981 ± 0.028 |

| Sequence | switch fluorescence ratio |
| --- | --- |
| ATGGAGGTTA | 0.9695 ± 0.0085 |
| ATGGATATGG | 1 ± 0.026 |
| ATGGATCACC | 1.019 ± 0.0027 |
| ATGGATCGAT | 0.967 ± 0.037 |
| ATGGATGACT | 1.04 ± 0.018 |
| ATGGATTTTT | 1.012 ± 0.0015 |
| ATGGCAGACA | 0.9836 ± 0.0036 |
| ATGGCAGGGC | 1.01 ± 0.016 |
| ATGGCAGGTT | 1.01 ± 0.021 |
| ATGGCCTTAA | 0.982 ± 0.028 |
| ATGGCGGCGT | 0.959 ± 0.035 |
| ATGGCTATTC | 0.979 ± 0.046 |
| ATGGCTGGGC | 1.005 ± 0.0042 |
| ATGGCTTTTG | 1.02 ± 0.037 |
| ATGGGAACGG | 0.994 ± 0.017 |
| ATGGGAAGAC | 1.06 ± 0.017 |
| ATGGGACATT | 1.03 ± 0.079 |
| ATGGGACTTT | 1.02 ± 0.037 |
| ATGGGAGCTG | 0.9831 ± 0.0037 |
| ATGGGATTGG | 0.962 ± 0.02 |
| ATGGGATTTA | 1.04 ± 0.024 |
| ATGGGCACA | 0.99899 ± 0.00092 |
| ATGGGCACGT | 0.983 ± 0.019 |
| ATGGGCAGTG | 1.02 ± 0.015 |
| ATGGGCCCT | 0.997 ± 0.031 |

| Sequence | switch fluorescence ratio |
| --- | --- |
| ATGGGCCGCT | 0.9835 ± 0.0087 |
| ATGGGCGGTA | 1.04 ± 0.052 |
| ATGGGCTGCT | 1.05 ± 0.062 |
| ATGGGCTTCG | 1.01 ± 0.034 |
| ATGGGGAAAG | 0.9876 ± 0.0034 |
| ATGGGGAAGT | 1.02 ± 0.02 |
| ATGGGGAATG | 0.984 ± 0.016 |
| ATGGGGCACT | 0.9789 ± 0.0042 |
| ATGGGGCAGG | 1.01 ± 0.033 |
| ATGGGGCGGC | 0.983 ± 0.026 |
| ATGGGGGACA | 0.981 ± 0.012 |
| ATGGGGGCGT | 0.994 ± 0.043 |
| ATGGGGGTCC | 1.01 ± 0.068 |
| ATGGGGTACA | 1.033 ± 0.0032 |
| ATGGGGTAGC | 0.995 ± 0.012 |
| ATGGGGTGCG | 0.9998 ± 0.0014 |
| ATGGGGTTTG | 0.974 ± 0.018 |
| ATGGGTAATC | 1.03 ± 0.026 |
| ATGGGTCCGG | 1.02 ± 0.037 |
| ATGGGTGATA | 0.9935 ± 0.0092 |
| ATGGGTGGGG | 1.01 ± 0.037 |
| ATGGGTTGTT | 1.01 ± 0.034 |
| ATGGGTTTGG | 1.01 ± 0.036 |
| ATGGGTTTTC | 0.981 ± 0.03 |
| ATGGTAATGG | 1.02 ± 0.016 |

| Sequence | switch fluorescence ratio |
| --- | --- |
| ATGGTATCT | 1.08 ± 0.1 |
| ATGGTGAATG | 0.978 ± 0.017 |
| ATGGTGACGG | 0.9765 ± 0.0034 |
| ATGGTGGCAG | 0.997 ± 0.054 |
| ATGGTGGTGT | 1.03 ± 0.013 |
| ATGGTGTCGA | 0.947 ± 0.029 |
| ATGGTGTGG | 1.02 ± 0.074 |
| ATGGTTATGT | 1.03 ± 0.026 |
| ATGGTTCAAC | 1.003 ± 0.01 |
| ATGGTTCGGG | 0.996 ± 0.014 |
| ATGGTTTCGT | 0.996 ± 0.037 |
| ATGGTTTTAT | 1.01 ± 0.045 |
| ATGTAAATGA | 0.9855 ± 0.0083 |
| ATGTAACGGG | 1.03 ± 0.021 |
| ATGTAATATG | 0.992 ± 0.024 |
| ATGTACGCTT | 1.052 ± 0.0038 |
| ATGTACTGGG | 1.08 ± 0.043 |
| ATGTACTTTA | 1.06 ± 0.028 |
| ATGTAGAAGG | 1 ± 0.029 |
| ATGTAGAGGT | 0.9803 ± 0.0074 |
| ATGTAGCATG | 1.036 ± 0.0041 |
| ATGTAGCGGT | 1.12 ± 0.013 |
| ATGTATAAAT | 0.9743 ± 0.009 |
| ATGTATTGAG | 1.008 ± 0.0025 |
| ATGTATTTTC | 0.986 ± 0.041 |

| Sequence | switch fluorescence ratio |
| --- | --- |
| ATGTATTTTT | 1 ± 0.031 |
| ATGTCACAAA | 1.03 ± 0.059 |
| ATGTCGACAC | 0.976 ± 0.02 |
| ATGTGAGTTC | 0.985 ± 0.022 |
| ATGTGATTTG | 0.985 ± 0.035 |
| ATGTGCATAT | 1.03 ± 0.02 |
| ATGTGCTGCG | 0.993 ± 0.031 |
| ATGTGCTTC | 1.005 ± 0.0078 |
| ATGTGGCTAG | 1.01 ± 0.032 |
| ATGTGGGCGG | 0.991 ± 0.028 |
| ATGTGGGGTT | 1.01 ± 0.014 |
| ATGTGGTGGT | 1 ± 0.043 |
| ATGTGGTTGT | 0.97 ± 0.019 |
| ATGTGTAGAG | 0.995 ± 0.027 |
| ATGTGTCTG | 0.987 ± 0.014 |
| ATGTGTCTTT | 0.979 ± 0.03 |
| ATGTGTTGGT | 1 ± 0.011 |
| ATGTTAAAAG | 1.01 ± 0.035 |
| ATGTTAACG | 0.999 ± 0.043 |
| ATGTTAATCT | 1.02 ± 0.035 |
| ATGTTATAGA | 0.986 ± 0.034 |
| ATGTTCAACT | 0.998 ± 0.016 |
| ATGTTCATGG | 0.99 ± 0.043 |
| ATGTTCCTTT | 0.999 ± 0.023 |
| ATGTTCGACA | 0.965 ± 0.027 |

| Sequence | switch fluorescence ratio |
| --- | --- |
| ATGTTCGAGA | 0.9855 ± 0.0066 |
| ATGTTCGTCA | 0.988 ± 0.044 |
| ATGTTCTTCT | 0.982 ± 0.018 |
| ATGTTGCCGT | 1.01 ± 0.13 |
| ATGTTGCGGG | 1 ± 0.041 |
| ATGTTGGGGA | 0.996 ± 0.019 |
| ATGTTGGTTG | 1.03 ± 0.04 |
| ATGTTGTAAC | 0.985 ± 0.01 |
| ATGTTGTAAG | 1.01 ± 0.039 |
| ATGTTGTGTT | 0.9626 ± 0.0029 |
| ATGTTTAGGG | 1.01 ± 0.042 |
| ATGTTTATCA | 1.01 ± 0.055 |
| ATGTTTATGG | 0.987 ± 0.012 |
| ATGTTTCGC | 0.999 ± 0.045 |
| ATGTTTGGGA | 0.967 ± 0.047 |
| ATGTTTGGGT | 1.01 ± 0.019 |
| ATGTTTGGTG | 0.97 ± 0.019 |
| ATGTTTTTCG | 0.9718 ± 0.0029 |
| ATGTTTTTGC | 1.04 ± 0.1 |
| ATTAAAAATG | 1.02 ± 0.042 |
| ATTAAACGAG | 1.01 ± 0.031 |
| ATTAAAGGAG | 1.01 ± 0.017 |
| ATTAAATACC | 1.25 ± 0.29 |
| ATTAAATAGC | 1.03 ± 0.043 |
| ATTAAATGAG | 1.01 ± 0.022 |

| Sequence | switch fluorescence ratio |
| --- | --- |
| ATTAAGCCAC | 1.12 ± 0.053 |
| ATTAAGTTTG | 1 ± 0.031 |
| ATTAATCTTG | 1.03 ± 0.046 |
| ATTAATGCGG | 1.07 ± 0.032 |
| ATTAATTCCG | 1.02 ± 0.0097 |
| ATTACACTGC | 1.01 ± 0.066 |
| ATTACATTTT | 1.03 ± 0.031 |
| ATTACTCACC | 1.44 ± 0.03 |
| ATTAGACATT | 1.003 ± 0.0016 |
| ATTAGAGGGA | 1.01 ± 0.029 |
| ATTAGAGGTG | 1.08 ± 0.03 |
| ATTAGCATCG | 0.981 ± 0.026 |
| ATTAGGCAAT | 1.22 ± 0.061 |
| ATTAGGTCTG | 0.941 ± 0.044 |
| ATTAGTAACG | 1.03 ± 0.0071 |
| ATTAGTAAGG | 1.01 ± 0.011 |
| ATTAGTGATC | 1.003 ± 0.0011 |
| ATTAGTTAGC | 1.01 ± 0.05 |
| ATTAGTTATA | 0.975 ± 0.029 |
| ATTAGTTGGA | 0.99 ± 0.024 |
| ATTAGTTGGC | 0.993 ± 0.027 |
| ATTATAGGGT | 1.03 ± 0.026 |
| ATTATAGGTT | 0.996 ± 0.0091 |
| ATTATAGTCG | 1.01 ± 0.036 |
| ATTATATAAT | 1.01 ± 0.046 |
